Source: paper PMC10719177

Columns and labels:
[1] = confocal colocalisation with LAMP-1/CD63 (Pearson), cell lines; conditions: control: untreated cells
[2] = confocal colocalisation (Pearson), primary and super-charged NK cells; conditions: glycan changed form; control: untreated cells
[3] = western blot of cell media; conditions: glycan lost; control: untreated cells

B1: cystatin F: kifunensine (10 µM, 6 h); U-937, TALL-104, NK-92 (protein)
parent chain: MRAAGTLLAFCCLVLSTTGGPSPDTCSQDLNSRVKPGFPKTIKTNDPGVLQAARYSVEKFNNCTNDMFLFKESRITRALVQIVKGLKYMLEVEIGRTTCKKNQHLRLDDCDFQTNHTLKQTLSCYSEVWVVPWLQHFEVPVLRCH
[1]; glycan changed form
  localisation_or_trafficking: increases

B2: cystatin F: tunicamycin (1 µg/mL); U-937, NK-92 (protein)
parent chain: B1 parent chain
[1]; glycan lost
  localisation_or_trafficking: decreases

B3: cystatin F: kifunensine (10 µM, 6 h); pNK, sNK (protein)
parent chain: B1 parent chain
[2]
  localisation_or_trafficking: increases

B4: cystatin F: tunicamycin (protein)
parent chain: B1 parent chain
[3]
  expression_or_secretion: changes
